Measurements: patent US20040176285A1, “Tip39 polypeptides” (priority 2001, published 2004)
Entries after “also recorded” stand apart in the source; their conditions may differ. Blank lines part the entries; values can stand above or below the molecule they belong to. Where a SMILES comes first, the peptide text is derived from it. Where no end group is shown, it is not given here.

Experiments:
PTH1R [1] = molecular target: T1, PTH1R (Homo sapiens, UniProt Q03431); assay: Ligand-stimulated cAMP accumulation in HKrk-B7 cells; type: cell-based; parameters: expressed in transfected cells
T1 sequence (Q03431 27-593): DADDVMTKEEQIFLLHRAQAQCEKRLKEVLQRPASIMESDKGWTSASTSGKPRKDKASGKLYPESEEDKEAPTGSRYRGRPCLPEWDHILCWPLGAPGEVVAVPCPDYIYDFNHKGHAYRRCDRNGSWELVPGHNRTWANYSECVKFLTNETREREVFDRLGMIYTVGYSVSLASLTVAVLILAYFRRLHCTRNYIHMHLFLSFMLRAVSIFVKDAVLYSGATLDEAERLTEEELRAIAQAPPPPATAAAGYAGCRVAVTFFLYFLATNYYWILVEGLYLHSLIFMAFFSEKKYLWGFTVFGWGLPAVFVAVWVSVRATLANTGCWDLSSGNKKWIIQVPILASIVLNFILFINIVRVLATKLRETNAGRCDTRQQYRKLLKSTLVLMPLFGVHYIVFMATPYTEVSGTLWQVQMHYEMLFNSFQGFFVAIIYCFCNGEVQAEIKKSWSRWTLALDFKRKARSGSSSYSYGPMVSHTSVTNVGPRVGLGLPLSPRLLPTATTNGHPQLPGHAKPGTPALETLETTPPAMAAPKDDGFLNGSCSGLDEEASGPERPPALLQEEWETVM
Experimental: (§1) DMEM, Trypsin/EDTA, and penicillin G/streptomycin and horse serum were from Gibco/BRL, Life Technologies, Gaithersburg, Md. LLC-PK, expressing the recombinant human PTH1R (HKrk-B7 cells) and SaOS-2 cells expressing the wild-type PTH1R endogenously were cultured in DMEM supplemented with 10% heat-inactivated fetal bovine serum, 100 U/ml penicillin, 100 μg/ml streptomycin, as previously described (Gardella, T. J., et al., J. Biol. Chem. 271:19888-19893 (1996); Fukayama, S., et al., Endocrinology 134:1851-1858 (1994)); both cell lines were maintained in a humidified atmosphere containing 95% air and 5% CO2. After seeding, medium was replaced daily, until cells were used for radioligand binding or cAMP accumulation assays.
(§2) Na^125I (specific activity: 2,000 Ci/mmol) was purchased from DuPont/NEN, Boston, Mass. Fetal bovine serum, 3-isobutyl-1-methyl-xanthine (IBMX), and BSA were from Sigma, St. Louis, Mo., and trifluoroacetic acid (TFA) was from Pierce, Rockford, Ill. Radiolabeled rPTH(1-34) and PTHrP(1-36) were prepared by the chloramine-T method, followed by HPLC purification using a 30-50% ACN/0.1% TFA gradient over 30 minutes; radioreceptor assays were performed in 24-well plates as previously described (Gardella, T. J., et al., J. Biol. Chem. 271:19888-19893 (1996); Fukayama, S. et al., Endocrinology 134:1851-1858 (1994)). In brief, each well (final volume 500 μl) contained binding buffer (BB; 50 mM Tris-HCl (pH 7.7), 100 mM NaCl, 5 mM KCl, 2 mM CaCl2, 5% heat-inactivated horse serum, and 0.5% heat-inactivated fetal bovine serum), the ^125I-labeled PTH or PTHrP analog (100,000 to 200,000 cpm) was incubated in the absence or presence of increasing concentrations of unlabeled peptides. After 4 h at 16° C., buffer was completely removed, the cells were rinsed with cold BB and lysed with 1 M NaOH. The entire lysate was counted for γ-irradiation. Specific binding was determined after subtracting radioactivity bound in the presence of maximal concentrations of unlabeled competing peptide (10^−6 M). Agonist-dependent stimulation of cAMP accumulation by HKrk-B7 and SaOS-2 cells (48-well plates; stimulation at room temperature for 45 minutes) and the subsequent measurement of cAMP by radioimmunoassay was performed as previously described (Gardella, T. J., et al., J. Biol. Chem. 271:19888-19893 (1996); Bergwitz, C., et al., Endocrinology 139:723-732 (1998)). Data were analyzed and graphically illustrated using the graph-pad prism software package.
The values for EC50 and Vmax (mean±SE) are derived from at least three independent experiments.

PTH1R [2] = molecular target: T1, PTH1R; assay: Radioreceptor binding assay with HKrk-B7 cells; parameters: expressed in transfected cells
Experimental: as §1, §2
The binding properties of these peptides were evaluated in radioreceptor assays with HKrk-B7 cells, which express the PTH IR at high density (approximately […]) (Carter, P. H., et al., Endocrinology 140:4972-4981 (1999)), using either radiolabeled rPTH(1-34) or PTHrP(1-36).
The calculated IC50 values (mean±SE) are derived from at least three independent experiments.

endogenous PTH1R = molecular target: T2, endogenous PTH1R (Homo sapiens, UniProt Q03431); assay: Ligand-stimulated cAMP accumulation in SaOS-2 cells; type: cell-based
T2 construct: SaOS-2 cells expressing the wild-type PTH1R endogenously; endogenous in cells; host or cells: SaOS-2 human osteosarcoma cells
T2 sequence (Q03431 27-593): T1 sequence (Q03431 27-593)
Experimental: as §1
as §2, with “After 4 h at 16° C., buffer was completely removed, the cells were rinsed with cold BB and lysed with 1 M NaOH.” left out, “Agonist-dependent stimulation of cAMP accumulation by HKrk-B7 and SaOS-2 cells (48-well plates; stimulation at room temperature for 45 minutes) and the subsequent measurement of cAMP by radioimmunoassay was performed as previously described (Gardella, T. J., et al., J. Biol. Chem. 271:19888-19893 (1996); Bergwitz, C., et al., Endocrinology 139:723-732 (1998)).” left out, “package. […]” for “package.”

[3] = molecular target: T3, human PTH/PTHrP receptor (PTH1R) (human, UniProt Q03431 27-593); assay: cell-based or functional assay
T3 sequence (looked up): T1 sequence (Q03431 27-593)

[4] = molecular target: T3, human PTH/PTHrP receptor (PTH1R); assay: radioreceptor competition on HKrk-B7 cells; tracer 125I-[Tyr36]PTHrP(1-36)amide
Experimental: (§3) Na¹²⁵I (specific activity: 2,000 Ci/mmol) was purchased from DuPont/NEN, Boston, Mass. Fetal bovine serum, 3-isobutyl-1-methyl-xanthine (IBMX), and BSA were from Sigma, St. Louis, Mo., and trifluoroacetic acid (TFA) was from Pierce, Rockford, Ill. […] After 4 h at 16° C., buffer was completely removed, the cells were rinsed with cold BB and lysed with 1 M NaOH. The entire lysate was counted for γ-irradiation. Specific binding was determined after subtracting radioactivity bound in the presence of maximal concentrations of unlabeled competing peptide (10⁻⁶ M). Agonist-dependent stimulation of cAMP accumulation by HKrk-B7 and SaOS-2 cells (48-well plates; stimulation at room temperature for 45 minutes) and the subsequent measurement of cAMP by radioimmunoassay was performed as previously described (Gardella, T. J., et al., J. Biol. Chem. 271:19888-19893 (1996); Bergwitz, C., et al., Endocrinology 139:723-732 (1998)). Data were analyzed and graphically illustrated using the graph-pad prism software package.

[5] = molecular target: T3, human PTH/PTHrP receptor (PTH1R); assay: radioreceptor competition on HKrk-B7 cells; tracer 125I-rat [Nle8,21,Tyr34]PTH(1-34)amide
Experimental: as §3

[6] = maximal cAMP accumulation, mean±SE

Molecule: [Ile^7]TIP(1-39): TIP(1-39) having Asp7 replaced by the corresponding isoleucine of PTH (SLALADIAAFRERARLLAALERRHWLNSYMHKLLVLDAP)
stimulation of cAMP accumulation at the PTH1R (in words) (PTH1R [1]; HKrk-B7 cells): None of these peptides, however, stimulated cAMP formation; also recorded: no activation of the PTH1R

Molecule: PTHrP(1-20)amide (AVSEHQLLHDKGKSIQDLRR-NH2) [reference compound]
inhibition of radioligand binding to the PTH1R (in words) (PTH1R [2]; either radioligand): did not inhibit the binding of either radioligand

Molecule: CSCC[C@H](NC(=O)[C@H](Cc1ccc(O)cc1)NC(=O)[C@H](CO)NC(=O)[C@H](CC(N)=O)NC(=O)[C@H](CC(C)C)NC(=O)[C@H](Cc1c[nH]c2ccccc12)NC(=O)[C@H](Cc1c[nH]cn1)NC(=O)[C@H](CCCNC(=N)N)NC(=O)[C@H](CCCNC(=N)N)NC(=O)[C@H](CCC(=O)O)NC(=O)[C@H](CC(C)C)NC(=O)[C@H](C)NC(=O)[C@H](C)NC(=O)[C@H](CC(C)C)NC(=O)[C@H](CC(C)C)NC(=O)[C@H](CCCNC(=N)N)NC(=O)[C@H](C)NC(=O)[C@H](CCCNC(=N)N)NC(=O)[C@H](CCC(=O)O)NC(=O)[C@H](CCCNC(=N)N)NC(=O)[C@H](Cc1ccccc1)NC(=O)[C@H](C)NC(=O)[C@H](C)NC(=O)[C@H](CC(=O)O)NC(=O)[C@H](CC(=O)O)NC(=O)[C@H](C)NC(=O)[C@H](CC(C)C)NC(=O)[C@H](C)N)C(=O)N[C@@H](Cc1c[nH]cn1)C(=O)N[C@@H](CCCCN)C(=O)N[C@@H](CC(C)C)C(=O)N[C@@H](CC(C)C)C(=O)N[C@H](C(=O)N[C@@H](CC(C)C)C(=O)N[C@@H](CC(=O)O)C(=O)N[C@@H](C)C(=O)N1CCC[C@H]1C(N)=O)C(C)C [TIP(3-39)] (H-ALADDAAFRERARLLAALERRHWLNSYMHKLLVLDAP-NH2)
stimulation of cAMP accumulation at the PTH1R (in words) (PTH1R [1]; HKrk-B7 cells): lack of second messenger formation; also recorded: failed to stimulate cAMP accumulation

Molecule: PTHrP(1-6)/TIP(9-39): chimera of human PTHrP residues 1-6 and bovine TIP residues 9-39
stimulation of cAMP accumulation at the PTH1R (in words) (PTH1R [1]; HKrk-B7 cells): None of these peptides, however, stimulated cAMP formation; also recorded: lack of PTH1R activation

B1: [Tyr^34] human PTH(1-34)amide (peptide)
chain: SVSEIQLMHNLGKHLNSMERVEWLRKKLQDVHNY
modifications: not fully specified (C-terminus)
EC50 of cAMP accumulation, SaOS-2 cells [3]: 0.3 nM

B2: PTHrP(1-20)/TIP(23-39) (peptide)
peptide: H-AVSEHQLLHDKGKSIQDLRRRHWLNSYMHKLLVLDAP-NH2
notes: also called PTHrP/TIP chimera
IC50 [4]: 11 nM | IC50 [5]: 31 nM | EC50 of cAMP accumulation, HKrk-B7 cells [3]: 1.4 nM | EC50 of cAMP accumulation, SaOS-2 cells [3]: 0.38 nM

More lines, main results first:

stimulation of cAMP accumulation at the PTH1R (in words) (PTH1R [1]; HKrk-B7 cells): lack of second messenger formation
Molecule: TIP(19-39): TIP39 analog truncated at the amino-terminus, residues 19-39, bovine sequence (ALERRHWLNSYMHKLLVLDAP)
inhibition of radioligand binding to the PTH1R (in words) (PTH1R [2]; either radioligand): did not inhibit the binding of either radioligand; also recorded: no detectable binding

increase in cAMP accumulation over basal (PTH1R [1]; HKrk-B7 cells, high molar concentrations): ~2 fold over basal
Molecule: TIP(23-39): TIP39 analog truncated at the amino-terminus, residues 23-39, bovine sequence (RHWLNSYMHKLLVLDAP)
inhibition of radioligand binding to the PTH1R (in words) (PTH1R [2]; either radioligand): did not inhibit the binding of either radioligand; also recorded: no detectable binding

Vmax (efficacy) of cAMP accumulation (PTH1R [1]; HKrk-B7 cells): 39±8 pmol/well | stimulation of cAMP accumulation at the PTH1R (in words) (PTH1R [1]; HKrk-B7 cells): full and potent agonist | HKrk-B7 Maxobs (PTH1R [1]; [6]): 39 ± 8 pmol/48-well | binding affinity higher than that of PTHrP(1-36) (PTH1R [2]): 2- to 4 fold | binding affinity weaker than that of PTH(1-34) (PTH1R [2]): 3- to 4 fold | improvement in apparent binding affinity (IC50) relative to TIP(1-39) (PTH1R [2]; either radioligand): 8- to 19 fold | Vmax (efficacy) of cAMP accumulation (endogenous PTH1R; SaOS-2 cells): 31±3 pmol/well | SaOS-2 Maxobs (endogenous PTH1R; [6]): 31 ± 3 pmol/48-well
Molecule: CC[C@H](C)[C@H](NC(=O)[C@H](CO)NC(=O)[C@H](CCCCN)NC(=O)CNC(=O)[C@H](CCCCN)NC(=O)[C@H](CC(=O)O)NC(=O)[C@H](Cc1c[nH]cn1)NC(=O)[C@H](CC(C)C)NC(=O)[C@H](CC(C)C)NC(=O)[C@H](CCC(N)=O)NC(=O)[C@H](Cc1c[nH]cn1)NC(=O)[C@H](CCC(=O)O)NC(=O)[C@H](CO)NC(=O)[C@@H](NC(=O)[C@H](C)N)C(C)C)C(=O)N[C@@H](CCC(N)=O)C(=O)N[C@@H](CC(=O)O)C(=O)N[C@@H](CC(C)C)C(=O)N[C@@H](CCCNC(=N)N)C(=O)N[C@@H](CCCNC(=N)N)C(=O)N[C@@H](CCCNC(=N)N)C(=O)N[C@@H](Cc1c[nH]cn1)C(=O)N[C@@H](Cc1c[nH]c2ccccc12)C(=O)N[C@@H](CC(C)C)C(=O)N[C@@H](CC(N)=O)C(=O)N[C@@H](CO)C(=O)N[C@@H](Cc1ccc(O)cc1)C(=O)N[C@@H](CCSC)C(=O)N[C@@H](Cc1c[nH]cn1)C(=O)N[C@@H](CCCCN)C(=O)N[C@@H](CC(C)C)C(=O)N[C@@H](CC(C)C)C(=O)N[C@H](C(=O)N[C@@H](CC(C)C)C(=O)N[C@@H](CC(=O)O)C(=O)N[C@@H](C)C(=O)N1CCC[C@H]1C(N)=O)C(C)C [PTHrP(1-20)/TIP(23-39)] (H-AVSEHQLLHDKGKSIQDLRRRHWLNSYMHKLLVLDAP-NH2)
